# Values quoted from earlier work, collected in paper PMC3798119.
# Molecular target: basigin (CD147) (Homo sapiens) (UniProt P35613)
# UniProt P35613, sequence (P35613 22-325): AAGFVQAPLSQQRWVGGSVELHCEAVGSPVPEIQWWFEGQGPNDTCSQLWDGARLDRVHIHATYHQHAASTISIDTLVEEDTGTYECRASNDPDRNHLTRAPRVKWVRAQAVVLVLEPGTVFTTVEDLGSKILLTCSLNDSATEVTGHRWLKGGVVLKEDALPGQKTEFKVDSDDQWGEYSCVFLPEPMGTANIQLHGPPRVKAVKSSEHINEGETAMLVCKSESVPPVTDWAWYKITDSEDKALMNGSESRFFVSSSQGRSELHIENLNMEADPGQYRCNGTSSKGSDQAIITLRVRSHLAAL
substance,measurement,value
RH5 (from UniProt Q8IFM5),Kd,1100 nM
